T1: ECF15_436
T1 chain: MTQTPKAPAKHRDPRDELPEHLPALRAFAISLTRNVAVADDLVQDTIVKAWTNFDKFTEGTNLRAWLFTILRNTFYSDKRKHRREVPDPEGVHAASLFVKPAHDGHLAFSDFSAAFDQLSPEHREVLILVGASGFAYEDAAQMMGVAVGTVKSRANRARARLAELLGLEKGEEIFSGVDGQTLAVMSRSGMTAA

T2: ECF16_3622
T2 chain: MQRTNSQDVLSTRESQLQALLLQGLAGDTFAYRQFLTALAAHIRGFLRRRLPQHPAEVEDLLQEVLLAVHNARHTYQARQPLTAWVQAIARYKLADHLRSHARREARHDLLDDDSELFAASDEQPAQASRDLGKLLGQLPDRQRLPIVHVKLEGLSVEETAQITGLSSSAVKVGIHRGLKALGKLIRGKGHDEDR

T3: ECF25_1645
T3 chain: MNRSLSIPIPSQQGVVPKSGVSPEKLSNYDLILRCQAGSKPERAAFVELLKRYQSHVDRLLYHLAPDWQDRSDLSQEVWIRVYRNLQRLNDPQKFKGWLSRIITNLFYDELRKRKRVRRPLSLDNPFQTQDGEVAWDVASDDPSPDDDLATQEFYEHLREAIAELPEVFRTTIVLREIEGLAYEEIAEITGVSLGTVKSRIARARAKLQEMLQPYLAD

T4: ECF03_1244
T4 chain: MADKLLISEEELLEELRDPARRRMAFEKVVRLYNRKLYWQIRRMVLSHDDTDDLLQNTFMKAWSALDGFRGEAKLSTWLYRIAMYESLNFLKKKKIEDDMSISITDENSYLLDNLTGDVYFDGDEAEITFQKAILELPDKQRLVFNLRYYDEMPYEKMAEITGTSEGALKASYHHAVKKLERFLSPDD

T5: ECF11_987
T5 chain: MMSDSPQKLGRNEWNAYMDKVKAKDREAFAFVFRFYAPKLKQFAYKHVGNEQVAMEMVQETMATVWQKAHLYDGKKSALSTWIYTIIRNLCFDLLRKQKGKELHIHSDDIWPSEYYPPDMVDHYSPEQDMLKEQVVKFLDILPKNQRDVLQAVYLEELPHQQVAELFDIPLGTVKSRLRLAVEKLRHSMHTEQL

T6: ECF22_1147
T6 chain: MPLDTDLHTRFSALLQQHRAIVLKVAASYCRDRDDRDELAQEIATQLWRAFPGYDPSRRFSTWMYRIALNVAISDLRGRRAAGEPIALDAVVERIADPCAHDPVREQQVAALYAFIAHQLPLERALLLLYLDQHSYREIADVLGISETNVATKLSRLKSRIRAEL

T7: ECF37_2513
T7 chain: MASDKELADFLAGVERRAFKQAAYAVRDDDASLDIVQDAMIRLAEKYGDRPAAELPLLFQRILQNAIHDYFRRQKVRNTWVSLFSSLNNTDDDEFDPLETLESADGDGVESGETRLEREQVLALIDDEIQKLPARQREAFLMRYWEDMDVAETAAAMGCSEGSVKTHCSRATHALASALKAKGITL

T8: ECF34_1384
T8 chain: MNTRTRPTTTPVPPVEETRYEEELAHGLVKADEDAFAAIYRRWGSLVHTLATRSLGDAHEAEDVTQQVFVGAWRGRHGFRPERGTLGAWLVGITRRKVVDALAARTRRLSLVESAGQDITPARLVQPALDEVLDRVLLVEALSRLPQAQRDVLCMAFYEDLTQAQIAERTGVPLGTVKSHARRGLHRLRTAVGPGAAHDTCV

T9: ECF33_375
T9 chain: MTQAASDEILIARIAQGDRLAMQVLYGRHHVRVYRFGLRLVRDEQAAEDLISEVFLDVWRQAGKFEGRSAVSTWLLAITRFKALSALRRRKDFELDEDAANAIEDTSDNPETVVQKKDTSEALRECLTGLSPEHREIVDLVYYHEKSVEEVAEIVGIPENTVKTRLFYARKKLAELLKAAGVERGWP

T10: ECF38_1322
T10 chain: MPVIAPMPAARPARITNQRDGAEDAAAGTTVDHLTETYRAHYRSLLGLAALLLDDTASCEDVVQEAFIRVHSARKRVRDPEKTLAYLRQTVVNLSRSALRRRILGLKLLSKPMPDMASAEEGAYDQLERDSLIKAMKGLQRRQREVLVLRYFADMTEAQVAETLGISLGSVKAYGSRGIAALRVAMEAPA

T11: ECF15_524
T11 chain: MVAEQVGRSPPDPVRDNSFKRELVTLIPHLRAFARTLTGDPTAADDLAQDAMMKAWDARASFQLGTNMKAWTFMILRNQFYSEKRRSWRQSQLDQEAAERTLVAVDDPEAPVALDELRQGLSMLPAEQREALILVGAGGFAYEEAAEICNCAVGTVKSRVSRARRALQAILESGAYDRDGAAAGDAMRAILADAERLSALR

T12: ECF14_1324
T12 chain: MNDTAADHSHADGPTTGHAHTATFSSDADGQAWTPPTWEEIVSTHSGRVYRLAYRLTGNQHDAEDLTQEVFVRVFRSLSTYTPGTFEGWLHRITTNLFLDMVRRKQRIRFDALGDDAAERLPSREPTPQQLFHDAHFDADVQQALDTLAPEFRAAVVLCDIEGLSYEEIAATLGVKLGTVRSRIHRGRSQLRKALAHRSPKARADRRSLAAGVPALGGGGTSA

T13: ECF17_1691
T13 chain: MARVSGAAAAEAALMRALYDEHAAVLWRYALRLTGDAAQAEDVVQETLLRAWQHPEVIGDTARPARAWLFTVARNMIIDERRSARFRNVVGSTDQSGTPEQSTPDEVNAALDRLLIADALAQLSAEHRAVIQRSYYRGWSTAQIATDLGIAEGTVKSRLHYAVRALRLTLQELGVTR

T14: ECF01_3473
T14 chain: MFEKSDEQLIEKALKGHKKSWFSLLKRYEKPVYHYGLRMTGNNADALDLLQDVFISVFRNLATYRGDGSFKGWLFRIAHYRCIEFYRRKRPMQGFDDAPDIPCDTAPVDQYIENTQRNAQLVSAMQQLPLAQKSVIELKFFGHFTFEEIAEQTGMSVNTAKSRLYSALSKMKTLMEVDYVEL

B1: AS04_1609 (protein)
chain: MNRTTEQRNAEVMKTIGLLDQMPRVEVDHLFRVRLMQRIEAMEVKKTSWSALPGGAFNPRLAFMALLLMLNIASALMLFMHGTPQATGSSGAIAESLTEDYGGPALSYYDDQTTIDR
B2: AS03_1244 (protein)
chain: MKQFDPDVNIRPKEDSIRHYSVPDDYFASFTDKLMAQIPAVKEENTVVVPSVALWPKLRPLLYLAASFLLMIGMFKAFSLFGVGSDTGRTTSTSAGLVALDHGDTRWSEDTDYRDFLHDNCAETVSDEWVLTDFSE
B3: AS15_436 (protein)
chain: MAQSTEPKASPQEATAKGGDNTKGKSRKELQQQIDENLRRVYEEALVQEVPDRFAMLLDQLRQKGTGK
B4: AS14_1324 (protein)
chain: MSGSRPEPEGHLAEQHLGDRLSALVDGELGHDARERVLAHVATCPKCKAEVDAQRRLKNVFAEAAPPAPSESFLARLQGLPGGGDSDGGGSPFSGLPGGFGASAASGVFGPRRDERFEFDYVPAGSHTPVLPSATSGRGFRIHEVGRHESDRSASRGLRFAFAAAGAVSLAAIALGGVTLGTPDTTTEARGSGSGSNVTPLRTPGSAAATGSESQRRRTAGPLLGQGQRALGDLPVASTTASAPLLPGMPAPAGGDARQQAVRALTTPVTAGAAAMSPLIRPLEAVPPLSLSSWSAAPEVRPPGLLAAPDPAPSPYPAASPAASSSPLR
B5: AS11_987 (protein)
chain: MNKHPDNNLLEAYASGSIDAVSGLVVATHLETCSKCRAYVNQVEASQANTVSESPSEYSPEFDDMLNDIINAEPVNDNVVIQDTAFVNVAGKSFELPKTLVRFSDLVGSWRSYGGKVFSAQIDLGEDARVSLMYIGENVQIPQHTHRGLESTLVLHGGFSDEDGQYEEGDLMVRDASVKHSPFTQEGEDCLCLTVLTEPMIFTQGVARIFNLFGKGLYP
B6: AS01_3473 (protein)
chain: MSNYDNAELLALWLEGKLTPKQRDEFEQRCIQDSQFAEQVDAAAMVKIGADDYSSSEVPQWNKAATFEPQQANNSGSWLSGVSLVTSALAIVLVLTGTQVTTSEGELRIRFGSGQSEQALVKLVDSKLDAFKQNQQDAFTLYAQTLQQQQSESASQLTNYLLSSSRKERREDFAELIKFVNQQRSDDQLFYARQLNQLQQDVYHDATGVALESIQQ
B7: AS03_1198 (protein)
chain: MDKDFDFDNIGKRTPYRTPDNFFEETQRKILERTVDEQRKKRRLKRIIPTVIAVAAVLAGILFTPSLRYMNTDTPSASNILAVDKNNVTTDPVDKWIKELSDEELEELVSFSENDIFLN

Molecular target: T1, ECF15_436

In order of falling fold repression:
1. B3  46.1
2. B4  6.5
3. B1  5.75
4. B5  3.32
5. B2  2.04
6. B6  1.94
7. B7  1.11

Molecular target: T2, ECF16_3622

In order of rising fold repression:
1. B7  1.26
2. B6  2.47
3. B2  2.5
4. B5  5.11
5. B3  6.45
6. B4  6.46
7. B1  13.1

Molecular target: T3, ECF25_1645

In order of falling fold repression:
1. B4  3.18
2. B5  2.46
3. B3  1.87
4. B2  1.37
5. B1  1.06
6. B7  0.816
7. B6  0.81

Molecular target: T4, ECF03_1244

In order of falling fold repression:
1. B2  60.8
2. B1  4.39
3. B4  3.13
4. B5  2.2
5. B3  1.54
6. B6  1.39
7. B7  1.36

Molecular target: T5, ECF11_987

In order of rising fold repression:
1. B6  1.52
2. B7  1.61
3. B2  2.14
4. B3  2.8
5. B1  6.21
6. B4  6.84
7. B5  77.4

The binders below were run against ECF26_4464.

In order of falling fold repression:
1. B3  24.7
2. B4  15.9
3. B1  6.23
4. B5  2.97
5. B6  2.22
6. B2  2.21
7. B7  1.48

Molecular target: T6, ECF22_1147

In order of falling fold repression:
1. B4  8
2. B3  6.02
3. B1  5.37
4. B6  3.4
5. B5  2.64
6. B2  2.3
7. B7  1.28

Molecular target: T7, ECF37_2513

In order of falling fold repression:
1. B3  5.1
2. B4  3.89
3. B1  2.72
4. B2  1.89
5. B5  1.66
6. B6  1.38
7. B7  1.07

Molecular target: T8, ECF34_1384

In order of rising fold repression:
1. B7  0.959
2. B6  1.64
3. B2  1.65
4. B3  2.2
5. B1  2.28
6. B5  2.37
7. B4  2.76

Molecular target: T9, ECF33_375

In order of falling fold repression:
1. B4  3.42
2. B1  3.16
3. B3  2.28
4. B5  1.99
5. B2  1.51
6. B6  1.13
7. B7  0.909

Molecular target: T10, ECF38_1322

In order of falling fold repression:
1. B1  3.12
2. B4  2.76
3. B3  2.66
4. B5  2.08
5. B2  1.68
6. B6  1.27
7. B7  1.07

Molecular target: T11, ECF15_524

In order of falling fold repression:
1. B3  33.1
2. B4  5.32
3. B5  3.35
4. B1  2.88
5. B2  2.14
6. B6  1.61
7. B7  1.49

Molecular target: T12, ECF14_1324

In order of rising fold repression:
1. B7  0.798
2. B2  2.35
3. B6  2.61
4. B5  3.15
5. B1  8.02
6. B3  9
7. B4  47.4

Molecular target: T13, ECF17_1691

In order of falling fold repression:
1. B4  4.81
2. B3  4.15
3. B5  2.68
4. B6  1.97
5. B2  1.44
6. B1  1.22
7. B7  0.986

Molecular target: T14, ECF01_3473

In order of rising fold repression:
1. B2  2.13
2. B7  2.38
3. B5  4.16
4. B1  4.75
5. B3  4.77
6. B4  8.34
7. B6  13
